Changes are numbered by the printed parent chain.
T1: CoV-HKU1 Spike ectodomain (HKU1-CoV, UniProt Q0ZME7 14-1276)
T1 chain: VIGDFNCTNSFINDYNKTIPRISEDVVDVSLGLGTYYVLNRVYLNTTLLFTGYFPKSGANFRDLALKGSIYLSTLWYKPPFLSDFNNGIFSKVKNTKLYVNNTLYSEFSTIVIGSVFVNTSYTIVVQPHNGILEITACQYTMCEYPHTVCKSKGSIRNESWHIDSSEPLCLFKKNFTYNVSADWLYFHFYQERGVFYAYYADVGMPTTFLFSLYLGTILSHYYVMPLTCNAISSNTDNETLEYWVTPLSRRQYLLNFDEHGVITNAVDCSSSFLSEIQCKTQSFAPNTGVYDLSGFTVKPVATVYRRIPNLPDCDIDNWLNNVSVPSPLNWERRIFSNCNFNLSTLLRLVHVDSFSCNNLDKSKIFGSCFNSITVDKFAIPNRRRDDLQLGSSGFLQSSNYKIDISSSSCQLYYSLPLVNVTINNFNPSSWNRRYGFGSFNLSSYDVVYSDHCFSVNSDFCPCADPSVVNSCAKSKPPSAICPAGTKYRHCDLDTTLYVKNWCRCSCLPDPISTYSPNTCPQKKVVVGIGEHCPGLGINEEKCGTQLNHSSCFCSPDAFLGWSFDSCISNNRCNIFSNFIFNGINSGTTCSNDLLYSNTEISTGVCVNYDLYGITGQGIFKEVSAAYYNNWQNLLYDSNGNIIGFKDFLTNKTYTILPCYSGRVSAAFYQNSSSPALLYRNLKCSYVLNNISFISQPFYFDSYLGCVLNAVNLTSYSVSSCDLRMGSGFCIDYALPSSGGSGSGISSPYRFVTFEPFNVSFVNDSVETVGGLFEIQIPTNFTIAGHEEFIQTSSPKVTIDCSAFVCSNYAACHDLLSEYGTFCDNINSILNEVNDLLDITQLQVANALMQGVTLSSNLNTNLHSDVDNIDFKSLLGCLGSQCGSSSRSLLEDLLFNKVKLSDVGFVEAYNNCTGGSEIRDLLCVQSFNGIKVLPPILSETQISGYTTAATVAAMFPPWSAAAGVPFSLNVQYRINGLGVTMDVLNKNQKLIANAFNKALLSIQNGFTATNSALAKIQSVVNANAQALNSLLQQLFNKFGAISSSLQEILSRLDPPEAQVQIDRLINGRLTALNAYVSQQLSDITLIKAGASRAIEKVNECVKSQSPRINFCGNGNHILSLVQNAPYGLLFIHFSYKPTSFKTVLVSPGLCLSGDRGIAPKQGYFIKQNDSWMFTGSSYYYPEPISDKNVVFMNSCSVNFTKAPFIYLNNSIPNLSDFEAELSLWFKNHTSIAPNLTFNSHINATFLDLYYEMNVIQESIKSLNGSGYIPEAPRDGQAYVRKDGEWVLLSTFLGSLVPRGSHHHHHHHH

T2: CoV-NL63 Spike ectodomain (NL63-CoV, UniProt Q6Q1S2 19-1291)
T2 sequence: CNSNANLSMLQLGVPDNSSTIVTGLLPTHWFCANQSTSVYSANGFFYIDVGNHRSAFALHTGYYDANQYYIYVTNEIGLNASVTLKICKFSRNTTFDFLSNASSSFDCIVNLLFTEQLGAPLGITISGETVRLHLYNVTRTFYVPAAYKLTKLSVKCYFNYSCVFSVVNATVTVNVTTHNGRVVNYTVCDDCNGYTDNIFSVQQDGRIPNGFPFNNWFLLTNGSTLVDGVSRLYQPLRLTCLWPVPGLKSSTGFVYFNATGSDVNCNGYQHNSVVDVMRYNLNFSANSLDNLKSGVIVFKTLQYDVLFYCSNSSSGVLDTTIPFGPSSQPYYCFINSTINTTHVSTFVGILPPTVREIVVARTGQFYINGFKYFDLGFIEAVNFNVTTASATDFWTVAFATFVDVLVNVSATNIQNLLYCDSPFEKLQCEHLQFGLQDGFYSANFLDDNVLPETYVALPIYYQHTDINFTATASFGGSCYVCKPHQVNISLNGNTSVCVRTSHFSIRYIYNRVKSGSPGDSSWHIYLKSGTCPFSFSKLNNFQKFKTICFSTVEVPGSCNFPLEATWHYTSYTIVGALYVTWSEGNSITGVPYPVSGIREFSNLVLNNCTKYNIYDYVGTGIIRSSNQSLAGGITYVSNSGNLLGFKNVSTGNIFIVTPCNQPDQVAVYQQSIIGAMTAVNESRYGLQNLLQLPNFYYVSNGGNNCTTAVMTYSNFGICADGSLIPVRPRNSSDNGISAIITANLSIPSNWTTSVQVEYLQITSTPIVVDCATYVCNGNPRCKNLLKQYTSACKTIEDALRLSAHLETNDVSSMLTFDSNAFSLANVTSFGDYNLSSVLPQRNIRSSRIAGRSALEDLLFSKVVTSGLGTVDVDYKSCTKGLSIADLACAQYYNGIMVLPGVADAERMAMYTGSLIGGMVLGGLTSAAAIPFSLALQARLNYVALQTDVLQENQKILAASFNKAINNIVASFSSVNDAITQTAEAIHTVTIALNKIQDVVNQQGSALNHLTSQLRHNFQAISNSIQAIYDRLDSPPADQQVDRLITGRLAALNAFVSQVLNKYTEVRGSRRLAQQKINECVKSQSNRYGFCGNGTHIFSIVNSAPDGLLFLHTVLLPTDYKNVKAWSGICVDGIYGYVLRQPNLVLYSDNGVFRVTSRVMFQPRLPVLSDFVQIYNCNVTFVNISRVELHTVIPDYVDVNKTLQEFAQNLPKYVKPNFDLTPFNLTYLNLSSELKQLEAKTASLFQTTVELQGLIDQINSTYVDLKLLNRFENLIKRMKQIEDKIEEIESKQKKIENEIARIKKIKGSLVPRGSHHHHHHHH

B1: Cv2.3194 (recombinant human IgG1) (antibody, V domains shown)
VH: EVQLVESGGGLIQPGGSLRLSCAASGITVTSNYMSWVRQAPGKGLEWVSVIYPGGSTFYADSVKGRFTISRDNSKNTLYLQMNSLRAEDTAVYYCARDLVVYGMDVWGQGTTVTVSS
VL: EIVLTQSPGTLSLSPGERATLSCRASQSVSSSYLAWYQQKPGQAPRLLIYGASSRATGIPGRFSGSGSGTDFTLTISRLEPEDFAIYYCQQGVTFGGGTKVEIKR
B2: Cv2.5213 (recombinant human IgG1) (antibody, V domains shown)
VH: B1 VH with I27F, T30S, V50L, P53S, F58Y, V100N, V101Y, T111A
VL: DIQMTQSPSSLSASVGDRVTITCRASQGISSYLAWYQQKPGKAPKLLIYAASTLQSGVPSRFSGSGSGTDFTLTISSLQPEDFATYYCQQLDSYSPFTFGPGTKVDIKR
B3: Cv2.3235 (recombinant human IgG1) (antibody, V domains shown)
VH: B1 VH with I27F, T30S, S31R, P53S, L99G, V100D, V101Y
VL: DIQMTQSPSFLSASVGDRVTITCRASQGISSFLAWYQQKPGKAPKLLIYGASTLQSGVTSRFSGSGSGTEFTLTISSLQPEDFATYYCQRLDSYPPITFGQGTRLEIKR
B4: Cv2.1353 (recombinant human IgG1) (antibody, V domains shown)
VH: EVQLVESGGGLVQPGGSLRLSCAASGVTVSSNYMNWVRQAPGKGLEWVSVIYSGGSTFYADSVKGRFIISRDNSKNTLYLQMNSLKTEDTAVYYCARDLGPMGFDIWGQGTMVTVSS
VL: B2 VL with S10F, D70E, D92N, Y94D, S95P, F97V
B5: Cv2.1169 (recombinant human IgG1) (antibody)
heavy: QVQLVQSGPEVKKPGTSVKVSCKASGFTFTTSAVQWVRQARGQRLEWIGWIVVGSGNTNYAQKFQERVTITRDMSTTTAYMELSSLRSEDTAVYYCAAPYCSGGTCLDGFDIWGQGTMVTVSSASTKGPSVFPLAPSSKSTSGGTAALGCLVKDYFPEPVTVSWNSGALTSGVHTFPAVLQSSGLYSLSSVVTVPSSSLGTQTYICNVNHKPSNTKVDKKVEPKSCDKTHTCPPCPAPELLGGPSVFLFPPKPKDTLMISRTPEVTCVVVDVSHEDPEVKFNWYVDGVEVHNAKTKPREEQYNSTYRVVSVLTVLHQDWLNGKEYKCKVSNKALPAPIEKTISKAKQPREPQVYTLPPSRDELTKNQVSLTCLVKGFYPSDIAVEWESNGQPENNYKTTPPVLDSDGSFFLYSKLTVDKSRWQQGNVFSCSVMHEALHNHYTQKSLSLSPGK
light: not shown
notes: also called Cv2.1169 IgG

Biological target: T1, CoV-HKU1 Spike ectodomain
Assay: ELISA, coated spike ectodomain

Row | Binder | binding result
1 | B1 | no binding
2 | B2 | no binding
3 | B3 | no binding
4 | B4 | no binding
5 | B5 | no binding

What follows are binders tested against T2, CoV-NL63 Spike ectodomain (assay: ELISA, coated spike ectodomain).

Row | Binder | binding result
6 | B1 | no binding
7 | B2 | no binding
8 | B3 | no binding
9 | B4 | no binding
10 | B5 | no binding
